# Laboratory results as given in patent US20170143843A1 (Genentech, published 2017).
# Where a chain is given by its changes, count along the chain named. Names and notes keep the numbering of the source.
# B1: AFD.v14 (SIESD.N103S; VL-D28S:D30E:D31S VH-D62E VH-N103S) (Fab, V domains shown)
# VH: EVQLVQSGPELKKPGASVKVSCKASGYTFTNYGMNWVRQAPGQGLEWMGWINTYTGETTYAEDFKGRFVFSLDTSVSTAYLQISSLKAEDTAVYYCEREGGVSNWGQGTLVTVSS
# VL: DIQVTQSPSSLSASVGDRVTITCITSTSIESDMNWYQQKPGKVPKLLISGGNTLRPGVPSRFSGSGSGTDFTLTISSLQPEDVATYYCLQSDSLPYTFGQGTKVEIKR
# notes: Fab; also called SIESD.N103S (AFD.v14); AFD.14
# B2: AFD.v8 (SIESD; VL-D28S:D30E:D31S VH-D62E) (Fab, V domains shown)
# VH: B1 VH with S103N
# VL: B1 VL
# notes: Fab; also called SIESD (AFD.v8)
# B3: AFD.v7 (TM.D92E; VL-D30E:D31S VH-D62E VL-D92E) (Fab, V domains shown)
# VH: B1 VH with S103N
# VL: B1 VL with S28D, D92E
# notes: Fab variant of aFD.WT; also called TM.D92E (AFD.v7)
# B4: AFD.v14 tetramer (AFD.v14.C conjugated to Sunbright PTE-400MA four-armed PEG) (other)
# light: DIQVTQSPSSLSASVGDRVTITCITSTSIESDMNWYQQKPGKVPKLLISGGNTLRPGVPSRFSGSGSGTDFTLTISSLQPEDVATYYCLQSDSLPYTFGQGTKVEIKRTVAAPSVFIFPPSDEQLKSGTASVVCLLNNFYPREAKVQWKVDNALQSGNSQESVTEQDSKDSTYSLSSTLTLSKADYEKHKVYACEVTHQGLSSPVTKSFNRGEC
# heavy: EVQLVQSGPELKKPGASVKVSCKASGYTFTNYGMNWVRQAPGQGLEWMGWINTYTGETTYAEDFKGRFVFSLDTSVSTAYLQISSLKAEDTAVYYCEREGGVSNWGQGTLVTVSSASTKGPSVFPLAPSSKSTSGGTAALGCLVKDYFPEPVTVSWNSGALTSGVHTFPAVLQSSGLYSLSSVVTVPSSSLGTQTYICNVNHKPSNTKVDKKVEPKSCDKTHTC
# modifications: C-terminal Cys linked through maleimide to one arm of a 40,000 MW four-armed PEG (Sunbright PTE-400MA)
# B5: AFD.v8 tetramer (AFD.v8.C conjugated to Sunbright PTE-400MA four-armed PEG) (other)
# light: B4 light
# heavy: B4 heavy with S103N
# modifications: C-terminal Cys linked through maleimide to one arm of a 40,000 MW four-armed PEG (Sunbright PTE-400MA)
# B6: AFD.v14.C+TP octamer (Cys-modified AFD.v14-8ARM (TP)-PEG-MAL conjugate) (other)
# light: B4 light
# heavy: B4 heavy
# modifications: C-terminal Cys linked through maleimide to one arm of a 40,000 MW eight-armed PEG with tripentaerythritol (TP) core (8ARM (TP)-PEG-MAL, JenKem)
# B7: AFD.v14.C (Cys-modified AFD.v14 variant, Fab-C) (Fab, V domains shown)
# VH: B1 VH
# VL: B1 VL
# B8: AFD.v15 (SIESD.N103S.D92E; VL-D28S:D30E:D31S:D92E VH-D62E:N103S) (Fab, V domains shown)
# VH: B1 VH
# VL: B1 VL with D92E
# notes: Fab variant of aFD.WT
# B9: AFD.v1 (VL-D28S) (Fab, V domains shown)
# VH: B1 VH with E62D, S103N
# VL: B1 VL with E30D, S31D
# notes: Fab variant of aFD.WT
# B10: AFD.v3 (VL-D31S) (Fab, V domains shown)
# VH: B1 VH with E62D, S103N
# VL: B1 VL with S28D, E30D
# notes: Fab variant of aFD.WT
# B11: AFD.v9 (VL-D28S:D30E:D31S VH-D62E VL-N34S) (Fab, V domains shown)
# VH: B1 VH with S103N
# VL: B1 VL with N34S
# notes: Fab variant of aFD.WT; also called SIESD + VL-N34S
# B12: AFD.v11 (VL-D28S:D30E:D31S VH-D62E VH-N52S) (Fab, V domains shown)
# VH: B1 VH with N52S, S103N
# VL: B1 VL
# notes: Fab variant of aFD.WT; also called SIESD + VH-N52S
# B13: AFD.v6 (TM; VL-D30E:D31S VH-D62E) (Fab, V domains shown)
# VH: B1 VH with S103N
# VL: B1 VL with S28D
# notes: Fab variant of aFD.WT; also called TM (AFD.v6)
# B14: AFD.v5 (VL-D28S:D31S:D32S) (Fab, V domains shown)
# VH: B1 VH with E62D, S103N
# VL: B1 VL with E30D, D32S
# notes: Fab variant of aFD.WT
# B15: AFD.v13 (SIESD.N103Q; VL-D28S:D30E:D31S VH-D62E VH-N103Q) (Fab, V domains shown)
# VH: B1 VH with S103Q
# VL: B1 VL
# notes: Fab variant of aFD.WT
# B16: AFD.v12 (SIESD.N103D; VL-D28S:D30E:D31S VH-D62E VH-N103D) (Fab, V domains shown)
# VH: B1 VH with S103D
# VL: B1 VL
# notes: Fab variant of aFD.WT
# B17: AFD.v4 (VL-D32S) (Fab, V domains shown)
# VH: B1 VH with E62D, S103N
# VL: B1 VL with S28D, E30D, S31D, D32S
# notes: Fab variant of aFD.WT
# B18: AFD.v2 (VL-D30E) (Fab, V domains shown)
# VH: B1 VH with E62D, S103N
# VL: B1 VL with S28D, S31D
# notes: Fab variant of aFD.WT; also called D30E (AFD.v2)
# B19: AFD.v10 (SIESD.D92E; VL-D28S:D30E:D31S VH-D62E VL-D92E) (Fab, V domains shown)
# VH: B1 VH with S103N
# VL: B1 VL with D92E
# notes: Fab variant of aFD.WT
# Target: T1, human factor D (human, UniProt P00746 26-253)
# T1 sequence (P00746 26-253 limits assumed): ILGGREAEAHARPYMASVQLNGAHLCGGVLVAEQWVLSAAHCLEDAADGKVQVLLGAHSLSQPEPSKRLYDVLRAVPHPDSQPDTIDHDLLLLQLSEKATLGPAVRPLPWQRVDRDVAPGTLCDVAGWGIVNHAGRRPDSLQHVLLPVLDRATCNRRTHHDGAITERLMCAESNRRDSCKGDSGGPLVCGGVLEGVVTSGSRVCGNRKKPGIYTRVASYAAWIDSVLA
# Assay: cell-based or functional assay
row,Binder,"IC50 (nM) AP Hemolysis (rabbit erythrocytes, C1q-depleted human serum)"
1,B1,4.1 nM
2,B2,4.2 nM
3,B3,3.8 nM

# Target: T1, human factor D
# Assay: cell-based or functional assay
# Remark: another data set of the same source
row,"Average IC50 fB Activation (pM), TR-FRET, 50 pM fD",Binder
1,14.8 pM,B4
2,11 pM,B5
3,34 pM,B1
4,27.6 pM,B2

# Target: T1, human factor D
# Assay: cell-based or functional assay
# Remark: another data set of the same source
"Average IC50 fB Activation (pM), TR-FRET, 125 pM fD; AFD.v14 TP octamer (CEX pool)","Average IC50 fB Activation (pM), TR-FRET, 125 pM fD; AFD.v14 TP octamer (S200 pool)","Average IC50 fB Activation (pM), TR-FRET, 125 pM fD",Binder
77 pM,104 pM,–,B6
–,–,72 pM,B7
–,–,87 pM,B1

# Target: T1, human factor D
# Assay: SPR, captured Fab, fD injected
row,fold decrease in affinity against SIESD.N103S (AFD.v14),Binder
1,4 fold,B8

# Target: T1, human factor D
# Assay: SPR Biacore T200, Fab captured by anti-huFab, human fD injected, 25 C
# Procedure: Antibody Fab fragments were immobilized on a Series S CM5 sensor chip using the anti-huFab capture kit (GE healthcare Cat. #28-9583-25) following a protocol described by the manufacturer. Kinetics of binding were calculated from sensorgrams recorded for injection of 60 μL aliquots of solutions of human factor D varied in concentration from 0.39 nM to 25 nM in 2-fold increments. The flow rate was 30 μL/minute, the running buffer was HBS-P+, the temperature of analysis was 25° C., real-time reference cell subtraction was employed, and dissociation following factor D injection was followed for 10 minutes. After subtraction of the sensorgram observed for injection of running buffer, data were analyzed according to a 1:1 model using BiaEval software v4.1 (GE Healthcare) to extract the kinetics and affinity constants.
row,Kd,Binder
1,≤ 0.01 nM,B9
2,0.0256 nM,B1
3,≤ 0.01 nM,B10
4,0.03 nM,B11
5,0.07 nM,B12
6,0.0167 nM,B2
7,≤ 0.01 nM,B13
8,≤ 0.01 nM,B3
9,0.28 nM,B14
10,0.102 nM,B8
11,0.06 nM,B15
12,0.023 nM,B16
13,0.026 nM,B17
14,≤ 0.01 nM,B18
15,0.07 nM,B19

# Target: T1, human factor D
# Assay: SPR total binding to fD over time; Fab 100 mg/mL in PBS, 37 C, 10 weeks (FIG. 2B)
row,loss in binding,Binder
1,10%,B1
2,~20%,B13
3,~20%,B18

# Target: T1, human factor D
# Assay: SPR total binding to fD over time; Fab 10 mg/mL in pH 5.5 buffer (FIG. 2A), one month
row,loss in binding,Binder
1,~40%,B13
2,~40%,B18
